Experimental data from the supplement of paper PMC9112550, “Optimization of the antimicrobial peptide Bac7 by deep mutational scanning” (BMC Biology, 2022).

System: Escherichia coli TOP10
Assay: shrunken log2 fold change of peptide-encoding DNA abundance (4.5 h post-induction vs induction); higher = less antimicrobial activity (less host growth inhibition)
Details: time post-induction: 4.5 h; library: site-saturation at positions 5, 18, 19, 20
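Further: peptides expressed intracellularly from a pBAD plasmid library in pooled LB shake-flask culture, induced with 0.3% L-arabinose, DNA abundance read by NGS, three biological replicates, DESeq2 with apeglm shrinkage.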

Sequence	shrunken log2 fold change
RRIRSRPPRLPRPRPRPTDTPRP	-0.214
RRIRKRPPRLPRPRPRPHSYPRP	0.0421
RRIRSRPPRLPRPRPRPESVPRP	0.17
RRIRHRPPRLPRPRPRPMEIPRP	-0.0801
RRIRGRPPRLPRPRPRPLVTPRP	1.2
RRIRLRPPRLPRPRPRPGESPRP	0.0313
RRIRVRPPRLPRPRPRPWVFPRP	0.284
RRIRRRPPRLPRPRPRPSQRPRP	0.0863
RRIRVRPPRLPRPRPRPDGGPRP	-0.0572
RRIRGRPPRLPRPRPRPCELPRP	-0.02
RRIRMRPPRLPRPRPRPDEPPRP	2.72
RRIRPRPPRLPRPRPRPNYYPRP	-0.468
RRIRQRPPRLPRPRPRPQYDPRP	-0.081
RRIRERPPRLPRPRPRPKNHPRP	-0.499
RRIRHRPPRLPRPRPRPRIPPRP	-0.32
RRIRTRPPRLPRPRPRPSHDPRP	-0.459
RRIRVRPPRLPRPRPRPENVPRP	-0.0136
RRIRPRPPRLPRPRPRPTKLPRP	-0.0235
RRIRIRPPRLPRPRPRPQTQPRP	-0.244
RRIRKRPPRLPRPRPRPVGIPRP	0.131
RRIRCRPPRLPRPRPRPQGGPRP	-0.107
RRIRVRPPRLPRPRPRPSNPPRP	-0.454
RRIRMRPPRLPRPRPRPHGKPRP	-0.0884
RRIRTRPPRLPRPRPRPWKNPRP	-0.0599
RRIRFRPPRLPRPRPRPLYTPRP	-0.58

Sequence	shrunken log2 fold change
RRIRPRPPRLPRPRPRPWVDPRP	0.064
RRIRMRPPRLPRPRPRPQHAPRP	0.0286
RRIRDRPPRLPRPRPRPWANPRP	0.0419
RRIRARPPRLPRPRPRPWFLPRP	-0.399
RRIRARPPRLPRPRPRPLHKPRP	0.408
RRIRLRPPRLPRPRPRPIVRPRP	-0.151
RRIRRRPPRLPRPRPRPYCSPRP	-0.262
RRIRRRPPRLPRPRPRPKAEPRP	0.0655
RRIRGRPPRLPRPRPRPQHNPRP	-0.186
RRIRMRPPRLPRPRPRPGLQPRP	4.5
RRIRIRPPRLPRPRPRPCGAPRP	-0.25
RRIRNRPPRLPRPRPRPHLTPRP	-0.0934
RRIRIRPPRLPRPRPRPFNLPRP	-0.496
RRIRSRPPRLPRPRPRPEKKPRP	0.0751
RRIRMRPPRLPRPRPRPIDRPRP	-0.0322
RRIRKRPPRLPRPRPRPHVQPRP	-0.0829
RRIRNRPPRLPRPRPRPPMLPRP	-0.0624
RRIRSRPPRLPRPRPRPAVYPRP	-0.585
RRIRRRPPRLPRPRPRPDKTPRP	0.119
RRIRSRPPRLPRPRPRPCMCPRP	-0.0077
RRIRRRPPRLPRPRPRPMFLPRP	0.0789
RRIRQRPPRLPRPRPRPWCPPRP	-0.261
RRIRPRPPRLPRPRPRPWPDPRP	-0.149
RRIRGRPPRLPRPRPRPPESPRP	0.873
RRIRCRPPRLPRPRPRPQRFPRP	-0.0259

Sequence	shrunken log2 fold change
RRIRRRPPRLPRPRPRPGMFPRP	0.00289
RRIRARPPRLPRPRPRPCFYPRP	-0.218
RRIRMRPPRLPRPRPRPGIDPRP	0.403
RRIRYRPPRLPRPRPRPLRIPRP	-0.36
RRIRFRPPRLPRPRPRPFHVPRP	-0.546
RRIRVRPPRLPRPRPRPDDKPRP	-0.446
RRIRYRPPRLPRPRPRPRTEPRP	-0.188
RRIRHRPPRLPRPRPRPVFKPRP	0.126
RRIRQRPPRLPRPRPRPVGGPRP	2.52
RRIRMRPPRLPRPRPRPSGTPRP	0.215
RRIRTRPPRLPRPRPRPGIWPRP	-0.0153
RRIRARPPRLPRPRPRPHGKPRP	0.175
RRIRKRPPRLPRPRPRPQYLPRP	-0.0967
RRIRERPPRLPRPRPRPSTLPRP	-0.999
RRIRLRPPRLPRPRPRPRKGPRP	0.0226
RRIRKRPPRLPRPRPRPTPVPRP	0.756
RRIRGRPPRLPRPRPRPMMWPRP	0.412
RRIRQRPPRLPRPRPRPVIVPRP	-0.0674
RRIRSRPPRLPRPRPRPPDIPRP	-0.283
RRIRKRPPRLPRPRPRPHPVPRP	0.185
RRIRVRPPRLPRPRPRPWIAPRP	0.201
RRIRGRPPRLPRPRPRPACRPRP	0.549
RRIRTRPPRLPRPRPRPMARPRP	0.193
RRIRTRPPRLPRPRPRPACPPRP	0.178
RRIRVRPPRLPRPRPRPSCYPRP	-0.568

Sequence	shrunken log2 fold change
RRIRRRPPRLPRPRPRPCHTPRP	-0.24
RRIRVRPPRLPRPRPRPKTPPRP	0.334
RRIRIRPPRLPRPRPRPYANPRP	-0.0728
RRIRDRPPRLPRPRPRPMTYPRP	-0.109
RRIRERPPRLPRPRPRPFHAPRP	-0.0736
RRIRCRPPRLPRPRPRPLHVPRP	-0.178
RRIRIRPPRLPRPRPRPHYNPRP	-1.03
RRIRSRPPRLPRPRPRPGAVPRP	0.324
RRIRWRPPRLPRPRPRPGCIPRP	0.293
RRIRIRPPRLPRPRPRPFGIPRP	-0.972
RRIRTRPPRLPRPRPRPSREPRP	0.427
RRIRKRPPRLPRPRPRPIGWPRP	0.7
RRIRERPPRLPRPRPRPVGVPRP	0.0502
RRIRPRPPRLPRPRPRPFVLPRP	-0.352
RRIRYRPPRLPRPRPRPIQAPRP	0.107
RRIRLRPPRLPRPRPRPYYWPRP	-0.172
RRIRGRPPRLPRPRPRPAWAPRP	0.854
RRIRMRPPRLPRPRPRPLDWPRP	0.474
RRIRERPPRLPRPRPRPCKPPRP	0.0172
RRIRTRPPRLPRPRPRPFGTPRP	-0.107
RRIRVRPPRLPRPRPRPHGFPRP	-0.017
RRIRDRPPRLPRPRPRPVTMPRP	-0.228
RRIRCRPPRLPRPRPRPQYGPRP	-0.142
RRIRGRPPRLPRPRPRPDHDPRP	0.301
RRIRERPPRLPRPRPRPPFPPRP	0.018

Sequence	shrunken log2 fold change
RRIRKRPPRLPRPRPRPSSHPRP	-0.163
RRIRIRPPRLPRPRPRPSQFPRP	-0.604
RRIRWRPPRLPRPRPRPLVCPRP	0.476
RRIRKRPPRLPRPRPRPQDVPRP	-0.0018
RRIRSRPPRLPRPRPRPLKLPRP	-0.15
RRIRVRPPRLPRPRPRPQCPPRP	-0.0117
RRIRFRPPRLPRPRPRPFFAPRP	0.424
RRIRIRPPRLPRPRPRPTNVPRP	-0.174
RRIRMRPPRLPRPRPRPAQHPRP	0.0457
RRIRQRPPRLPRPRPRPVFDPRP	-0.446
RRIRIRPPRLPRPRPRPFKHPRP	-1.2
RRIRTRPPRLPRPRPRPQYCPRP	-0.0968
RRIRNRPPRLPRPRPRPARCPRP	0.319
RRIRRRPPRLPRPRPRPPQDPRP	1.39
RRIRIRPPRLPRPRPRPIDQPRP	-0.341
RRIRPRPPRLPRPRPRPMWIPRP	-0.237
RRIRWRPPRLPRPRPRPSFCPRP	-0.136
RRIRRRPPRLPRPRPRPLLAPRP	0.887
RRIRCRPPRLPRPRPRPSYCPRP	-0.342
RRIRKRPPRLPRPRPRPDFAPRP	-0.033
RRIRYRPPRLPRPRPRPNCRPRP	-0.134
RRIRQRPPRLPRPRPRPGIMPRP	-0.0424
RRIRMRPPRLPRPRPRPTFFPRP	0.229
RRIRERPPRLPRPRPRPDKTPRP	-0.0128
RRIRTRPPRLPRPRPRPVWIPRP	-0.651
